The supplement of paper PMC10567573
± gives the standard deviation.

Experiment: protein stability index of a GFP-peptide fusion (GPS, HEK-293T) (PSI 1-6); higher = more stable
[1] = treatment: DMSO, c terminus: a fixed tail appended
[2] = treatment: MLN4924 1 uM, 8 h, c terminus: a fixed tail appended
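Note: 24-mer peptide tiles fused after GFP, lentivirally expressed, FACS-sorted into six equal bins by GFP/DsRed ratio, decoded by Illumina sequencing, PSI is the read-weighted mean bin number.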

Row | Sequence | protein stability index [1] | protein stability index [2] | protein stability index (treatment: DMSO, c terminus: native) | protein stability index (treatment: MLN4924 1 uM, 8 h, c terminus: native)
1 | VIVWDGDTTRQVQRISCFQSTVKC [WDR41] | 2.31 ± 0.31 | 2.01 ± 0.11 |  | 
2 | VKSRGKRLALEKVPKVGQRFNRIG [PI4K2A] | 3.23 ± 0.49 | 3.46 ± 0.21 |  | 
3 | VLMAVSVHSERKLLPLVTLCDGNP [SCNN1D] | 2.4 ± 0.38 | 2.32 ± 0.47 |  | 
4 | VMSEGLGMRYAFIGPLETMHLNAE [CRYL1] | 2.05 ± 0.23 | 2.05 ± 0.4 |  | 
5 | VNGDGSRENGNNSSDKVRGIETLE [PHTF1] | 5.24 ± 0.32 | 5.22 ± 0.28 |  | 
6 | VNIEWHRFRFGQDQLLLATGLNNG [WSB1] | 2.76 ± 0.41 | 2.58 ± 0.45 |  | 
7 | VPRAGPLTVNTEAQQLLREFEEAT [FOXJ1] | 4.96 ± 0.19 | 4.9 ± 0.26 |  | 
8 | VPRPGTPQSPPSCRAPPPEARGIR [FCHO1] | 4.85 ± 0.42 | 4.85 ± 0.14 |  | 
9 | VPVHSFASLNIKTTVPEVEPPQDS [PRPH] | 4.97 ± 0.2 | 4.99 ± 0.073 |  | 
10 | VPYHIARIPYTKSQTEAHYSCQSK [P2RY14] | 3.47 ± 0.17 | 3.53 ± 0.36 |  | 
11 | VQDEFLDTPCTNRGLPLLKTDFGS [DLC1] | 3.85 ± 0.43 | 3.91 ± 0.41 |  | 
12 | VQDKTPLYSQLLQAYKWSNKLQYH [MED27] | 2.18 ± 0.27 | 2.19 ± 0.25 |  | 
13 | VQEAVLDKWVNDPHRMDRRLLALI [GOLPH3] | 2.29 ± 0.18 | 2.52 ± 0.17 |  | 
14 | VQGLEGIKMAMVACGDAFTVAIGA [NEK8] | 2.79 ± 0.71 | 2.95 ± 0.46 |  | 
15 | VQHERIHTGDKPYKCAECGKSFCH [ZNF8] | 4.54 ± 0.33 | 4.68 ± 0.16 |  | 
16 | VQKRARSGPQPRLPPCLLPLSPPT [TRIB3] | 3.35 ± 0.2 | 3.46 ± 0.23 |  | 
17 | VQRSPWLMMRMGILGRGLQEYQLP [TCAP] | 2.3 ± 0.17 | 2.21 ± 0.48 |  | 
18 | VRCGLLGSLGPVPVLRFDALWQVL [TRIM14] | 2.29 ± 0.39 | 2.29 ± 0.49 |  | 
19 | VRERILGADNIDVSHPIIYRGAVY [FEM1B] | 2.13 ± 0.29 | 2.57 ± 0.32 |  | 
20 | VRFLEQQNAALRGELSQARGQEPA [PRPH] | 4.57 ± 0.27 | 4.41 ± 0.18 |  | 

Row | Sequence | protein stability index [1] | protein stability index [2] | protein stability index (treatment: DMSO, c terminus: native) | protein stability index (treatment: MLN4924 1 uM, 8 h, c terminus: native)
21 | VSPGVLVLLAVLPVLLLQITVGLV [MOG] | 2.92 ± 0.39 | 2.96 ± 0.51 |  | 
22 | VSPRRIFANGHTYHINSISVNSDC [PPP2R2C] | 2.67 ± 0.27 | 2.87 ± 0.19 |  | 
23 | VSVFIGVLIDLWKITKVMDVRLDR [CLPTM1] | 3.19 ± 0.1 | 2.97 ± 0.35 |  | 
24 | VTSIPSVSDSLTWREFHYIQSKLG [STEAP1] | 2.66 ± 0.24 | 2.69 ± 0.18 |  | 
25 | VVDIFQTVKMLRTQRPAMVQTEDQ [PTPRD] | 3.23 ± 0.32 | 3.06 ± 0.27 |  | 
26 | VVLGNIIKKKGWRRSSLVITTKIF [KCNAB2] | 2.86 ± 0.34 | 2.74 ± 0.55 |  | 
27 | VVLTFITPMLNPLIYTLKNAEMKS [OR4A15] | 3.22 ± 0.073 | 2.99 ± 0.63 |  | 
28 | WAEIAKMLPGRTDNAVKNHWNSTI [MYBL2] | 2.18 ± 0.28 | 2.16 ± 0.18 |  | 
29 | WCLRVNPKGLDDESKDYLSLYLLL [SPOPL] | 2.96 ± 0.41 | 3.08 ± 0.69 |  | 
30 | WEWSPAGLQSYQQALLRISLDKVQ [SERTAD3] | 2.48 ± 0.58 | 2.49 ± 0.69 |  | 
31 | WHDVQVSSAYVKTSEKLGEWNEKV [TPD52L2] | 3.64 ± 0.26 | 3.8 ± 0.24 |  | 
32 | WKYFKGNFYYFSLIPKTWYSAEQF [CD207] | 3.12 ± 0.47 | 2.78 ± 0.71 |  | 
33 | WNDAPCDKTFLFICKRPYVPSEP [CD207] |  |  | 1.99 ± 0.96 | 2.13 ± 0.13
34 | WPLRGKREAMLEMLLQHQICKEVQ [SPAG8] | 2.17 ± 0.4 | 2.11 ± 0.24 |  | 
35 | WQYLSGGKVKLQQNPGKFDELDMS [TBC1D10A] | 3.16 ± 0.32 | 3.35 ± 0.26 |  | 
36 | YALDMQQSNLEPLSPMTASSFLSF [FEM1A] | 2.6 ± 0.23 | 2.47 ± 0.085 |  | 
37 | YCRLKKCLKVGMRREAVQRGRMPP [NR2F2] | 2.84 ± 0.39 | 2.77 ± 0.26 |  | 
38 | YDSQPQDVLGIRQLERPLPLTSVC [TRAF3IP2] | 3.68 ± 0.065 | 3.74 ± 0.23 |  | 
39 | YENFLEDKALMIAMEYAPGGTLAE [NEK8] | 3.54 ± 0.13 | 3.98 ± 0.2 |  | 
40 | YERLARILLQEIPIRSISLRSCYF [FBXO39] | 2.92 ± 0.28 | 2.56 ± 0.26 |  | 

Row | Sequence | protein stability index [1] | protein stability index [2] | protein stability index (treatment: DMSO, c terminus: native) | protein stability index (treatment: MLN4924 1 uM, 8 h, c terminus: native)
41 | YGSCYTVDGVWTAQRPGITHGVGL [SCNN1D] | 2.69 ± 0.5 | 2.2 ± 0.15 |  | 
42 | YIMAFDIKSEDMLKILKPSIPLER [FBXO33] | 2.34 ± 0.44 | 2.67 ± 0.4 |  | 
43 | YISHRELGDCMRTLGYMPTEMELL [CABP4] | 2.27 ± 0.34 | 2.48 ± 0.43 |  | 
44 | YKKGRMMKDISNLEENDETRFILS [SLC6A17] | 3.35 ± 0.29 | 3.09 ± 0.39 |  | 
45 | YLDKAPPPGLPAETIKDLMRQFLR [CDK4] | 4.45 ± 0.2 | 4.23 ± 0.39 |  | 
46 | YLGSLQYRVWKKMLASVESVPFSF [TRIM35] | 2.93 ± 0.63 | 2.33 ± 0.48 |  | 
47 | YNNRGQIKYFRVDFYEAMDDYTSA [TTC32] | 2.15 ± 0.29 | 2.35 ± 0.24 |  | 
48 | YPEQSKGFHKAGSMLPPVNFSIVP [SPATS1] | 2.65 ± 0.5 | 3.06 ± 0.69 |  | 
49 | YQDMIYAVGGRDDTTELSSAERYN [KLHL20] | 2.91 ± 0.66 | 3.52 ± 0.51 |  | 
50 | YQELLNVKMALDIEIATYRKLLEG [PRPH] | 2.22 ± 0.22 | 2.43 ± 0.081 |  | 
51 | YRLLKCAPRGKNGFTPLHMAVDKD [FEM1A] | 2.84 ± 0.22 | 2.96 ± 0.14 |  | 
52 | YRQDDPSYRSFHSGGYGQDALGMD [CTNNB1] | 3.89 ± 0.35 | 4.03 ± 0.14 |  | 
53 | YSHLAYNNYRLGGNPSTNSRVTAS [SMARCE1] | 3.3 ± 0.34 | 3.35 ± 0.18 |  | 
54 | YSIGRSVEGRHLYVLEFSDHPGIH [CPN1] | 2.07 ± 0.23 | 2.07 ± 0.12 |  | 
55 | YSLLPQSTAPGLFLVSTHTGEVRT [PCDHGC5] | 3.07 ± 0.14 | 3.07 ± 0.29 |  | 
56 | YSQGRLSEAEEALYLIAKRNRKLK [SLC22A15] | 2.81 ± 0.2 | 3 ± 0.063 |  | 
57 | YVRMVFLALYVLFLADEEFDVVVC [ALG2] | 3.1 ± 0.71 | 2.93 ± 1 |  | 
58 | YWPLEKDSRIRFGFLTVTNLGVEN [PTPN9] | 2.47 ± 0.36 | 2.43 ± 0.4 |  | 
